Experimental data from patent publication US20100004432, “APTAMER AGAINST MIDKINE AND USE THEREOF” (RIBOMIC INC., published 2010).
Positions count from the first letter of the chain named.

T1: midkine (full-length) (Homo sapiens, UniProt P21741 P21741:23-143)
T1 sequence: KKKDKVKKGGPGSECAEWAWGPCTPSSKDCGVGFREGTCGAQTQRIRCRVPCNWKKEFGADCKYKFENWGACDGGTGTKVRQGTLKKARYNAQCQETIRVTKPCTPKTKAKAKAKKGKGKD

B1: SEQ ID NO:61 (ssRNA)
RNA: GGGAAGGAGGAAGUGCACAGGGGUUGGUGUCGGGUGCAC
modifications: 2'-F pyrimidines
B2: SEQ ID NO:69 (ssRNA)
RNA: B1 RNA with U25A
modifications: 2'-F pyrimidines; 2'-OMe on part of purines (5' strand A, stem purines, loop G, A25)
B3: SEQ ID NO:62 (ssRNA)
RNA: B1 RNA with A5G, G6A, A8G, G9A
modifications: 2'-F pyrimidines
B4: SEQ ID NO:70 (ssRNA)
RNA: B1 RNA with U24A
modifications: 2'-F pyrimidines; 2'-OMe on part of purines (5' strand A, stem purines, loop G, A24)
B5: SEQ ID NO:68 (ssRNA)
RNA: B1 RNA with U28A
modifications: 2'-F pyrimidines; 2'-OMe on part of purines (5' strand A, stem purines, loop G, A28)
B6: SEQ ID NO:55 (ssRNA)
RNA: GGGAGAGGAGGAGGAAGUGCACAGGGGUUGGUGUCGGGUGCAC
modifications: 2'-F pyrimidines
B7: SEQ ID NO:58 (ssRNA)
RNA: B6 RNA with G11A, G14A, A15G, A16G
modifications: 2'-F pyrimidines
B8: SEQ ID NO:57 (ssRNA)
RNA: B6 RNA with G11A, G14A
modifications: 2'-F pyrimidines
B9: SEQ ID NO:50 (ssRNA)
RNA: B6 RNA with G5A, A6G, G8A, G10A
modifications: 2'-F pyrimidines
B10: SEQ ID NO:56 (ssRNA)
RNA: B6 RNA with G11A
modifications: 2'-F pyrimidines
B11: SEQ ID NO:44 (ssRNA)
RNA: GGGAGAGGAGAAGAGGAAGUUGCACAGGGGUUGGUGUCGGGUGCAAC
modifications: 2'-F pyrimidines
B12: SEQ ID NO:60 (ssRNA)
RNA: GGGAAGGAGUGCACAGGGGUUGGUGUCGGGUGCAC
modifications: 2'-F pyrimidines
B13: SEQ ID NO:47 (ssRNA)
RNA: GGGAGAGGAGAAGAGGAAGUGUGCACAGGGGUGGUGUCGGGUGCAUAC
modifications: 2'-F pyrimidines
B14: SEQ ID NO:48 (ssRNA)
RNA: B13 RNA with G33U
modifications: 2'-F pyrimidines
B15: SEQ ID NO:49 (ssRNA)
RNA: B13 RNA with G33U, U35G
modifications: 2'-F pyrimidines
B16: SEQ ID NO:66 (ssRNA)
RNA: GGAAGGAGGAAGUGCACAGGGGUUGGUGUCGGGUGCAC
modifications: g(F)g(F)a(M)a(M)g(F)g(F)a(M)g(F)g(F)a(M)a(M)g(M)u(F)g(M)c(F)a(M)c(F)a(M)gg(M)g(M)g(M)u(F)u(F)g(M)g(M)u(F)g(M)u(F)c(F)g(F)g(F)g(M)u(F)g(M)c(F)a(M)c(F); F=2'-F M=2'-OMe
B17: SEQ ID NO:67 (ssRNA)
RNA: B16 RNA
modifications: gga(M)a(M)gga(M)gga(M)a(M)g(M)u(F)g(M)c(F)a(M)c(F)aggg(M)g(M)u(F)u(F)g(M)g(M)u(F)g(M)u(F)c(F)gggu(F)g(M)c(F)a(M)c(F); F=2'-F M=2'-OMe
B18: SEQ ID NO:54 (ssRNA)
RNA: GGGAGAGGAGAAGAGGAAGUGCACAGGGGUUGGUGUCGGGUGCAC
modifications: 2'-F pyrimidines; 5' single strand (nt 1-18) all G 2'-F and all A 2'-OMe
B19: SEQ ID NO:63 (ssRNA)
RNA: B18 RNA with A25C, G26C
modifications: 2'-F pyrimidines
B20: SEQ ID NO:45 (ssRNA)
RNA: B18 RNA
modifications: 2'-F pyrimidines
B21: SEQ ID NO:46 (ssRNA)
RNA: GGGAGAGGAGAAGAGGAAGUGCGCGCAGGGGUUGGUGUCGGGCGCGUAC
modifications: 2'-F pyrimidines
B22: SEQ ID NO:51 (ssRNA)
RNA: GGGAAGGAGAGAGGAAGUGCACAGGGGUUGGUGUCGGGUGCACAGUAUAAG
modifications: 2'-F pyrimidines
B23: SEQ ID NO:53 (ssRNA)
RNA: B22 RNA with G9A
modifications: 2'-F pyrimidines
B24: SEQ ID NO:52 (ssRNA)
RNA: B22 RNA with G3A, A5G, G7A, A8G, G9A
modifications: 2'-F pyrimidines
B25: SEQ ID NO:59 (ssRNA)
RNA: GGGUGCACAGGGGUUGGUGUCGGGUGCAC
modifications: 2'-F pyrimidines
B26: SEQ ID NO:7 (ssRNA)
RNA: GGGAACGUGCUCUGUACGAGGAGUAGCCGGAAAGAAGGCGGUGUGUAGAGGACAGGAAUGAGGA
modifications: 2'-F pyrimidines
B27: SEQ ID NO:22 (ssRNA)
RNA: GGGACGAGGAGUAGCCGGAAAGAAGGCGGCGUC
modifications: 2'-F pyrimidines
B28: SEQ ID NO:10 (ssRNA)
RNA: GGGAGAGGAGAAGAGGAACGUGCUCUGUACGAGGAGUAGCCGAAAGGCGGUGUGUAGAGGACAGGAAUGAGGA
modifications: 2'-F pyrimidines
B29: SEQ ID NO:6 (ssRNA)
RNA: GGGAGAGGAGAAGAGGAACGUGCUCUGUACGAGGAGUAGCCGGAAAGAAGGCGGUGUGUAGAGGACA
modifications: 2'-F pyrimidines
B30: SEQ ID NO:16 (ssRNA)
RNA: GGGAGAGGAGAAGAGGAACGCUGCACGAGGGUAGCCGGAAAGAAGGCGGCGUGCAGC
modifications: 2'-F pyrimidines
B31: SEQ ID NO:15 (ssRNA)
RNA: GGGAGAGGAGAAGAGGAACGCUGCACGAGGAGUAGCCGGAAAGGGCGGCGUGCAGC
modifications: 2'-F pyrimidines
B32: SEQ ID NO:18 (ssRNA)
RNA: GGGCUACGAGGAGUAGCCGGAAAGAAGGCGGCGUAGC
modifications: 2'-F pyrimidines
B33: SEQ ID NO:20 (ssRNA)
RNA: GGGAGAGGAACGACGAGGAGUAGCCGGAAAGAAGGCGGCGUC
modifications: 2'-F pyrimidines
B34: SEQ ID NO:14 (ssRNA)
RNA: GGGAGAGGAGAAGAGGAACGCUACGAGGAGUAGCCGGAAAGAAGGCGGCGUAGC
modifications: 2'-F pyrimidines
B35: SEQ ID NO:13 (ssRNA)
RNA: GGGAGAGGAACGCUGCACGAGGAGUAGCCGGAAAGAAGGCGGCGUGCAGC
modifications: 2'-F pyrimidines
B36: SEQ ID NO:19 (ssRNA)
RNA: GGGAGAGGAACGUACGAGGAGUAGCCGGAAAGAAGGCGGCGUAC
modifications: 2'-F pyrimidines
B37: SEQ ID NO:9 (ssRNA)
RNA: GGGAGAGGAGAAGAGGAACGUGCUCUGUACGCCGGAAAGAAGGUGUGUAGAGGACAGGAAUGAGGA
modifications: 2'-F pyrimidines
B38: SEQ ID NO:17 (ssRNA)
RNA: GGGAGAGGAACGCUACGAGGAGUAGCCGGAAAGAAGGCGGCGUAGC
modifications: 2'-F pyrimidines
B39: SEQ ID NO:11 (ssRNA)
RNA: GGGAGAGGAGAAGAGGAACGUGCUCUGCACGAGGAGUAGCCGGAAAGAAGGCGGCGUGCAGAGGACAGGAAUGAGGA
modifications: 2'-F pyrimidines
B40: SEQ ID NO:8 (ssRNA)
RNA: GGGAGAGGAGAAGAGGAACGCUGUACGAGGAGUAGCCGGAAAGAAGGCGGUGUGUAGCAGGAAUGAGGA
modifications: 2'-F pyrimidines
B41: SEQ ID NO:12 (ssRNA)
RNA: GGGAGAGGAGAAGAGGAACGCUGCACGAGGAGUAGCCGGAAAGAAGGCGGCGUGCAGC
modifications: 2'-F pyrimidines

Target: T1, midkine (full-length)
Assay: cell_activity; 500 nM RNA
Conditions: tags: expressed in yeast
Method: (§1) 30 μL of 1.5 μM midkine was applied to the outer surface of the membrane of Chemotaxicell (membrane pore diameter 8 μm, manufactured by Kurabo) to immobilize the midkine to the outer surface of the membrane. The midkine-immobilized Chemotaxicell was placed on a 24-well culture plate containing 500 μL of a medium (supplemented with 0.3% bovine serum albumin, Dulbecco's Modified Eagle's medium) supplemented with each RNA aptamer added thereto at 100 nM. 200 μL of UMR106 cells were placed in the inner layer of the Chemotaxicell chamber at a density of 1×10⁶ cells/mL, and cultured at 37° C. for 4 hours. The cells remaining in the inner layer of the Chemotaxicell chamber were removed, and the cells that had infiltrated and adhered to the midkine-applied surface were fixed with methanol. The Chemotaxicell chamber was immersed in a 1% aqueous solution of Crystal Violet for 30 minutes to stain the cells. After the Chemotaxicell chamber was washed with distilled water and dried, the pigment was extracted with a mixed solution of 200 μL of 1% SDS and 1% triton X100. 150 μL of the extract was transferred to a 96-well microplate, and its absorbance at 590 nm was determined.
(§2) The aptamer shown by SEQ ID NO:5 is 77 nucleotides long, having the 2′-position of the ribose of the pyrimidine nucleotide fluoro-substituted. To enable the chemical synthesis, to reduce the toxicity, and to improve the stability in the blood, miniaturization and stabilization of this aptamer were performed. The operations of miniaturization and stabilization were performed on the basis of the secondary structure estimated by the MFOLD program, and the activity was evaluated by a cell migration inhibition experiment. The RNA concentration in the cell migration inhibition experiment was 100 nM or 500 nM. Since some errors occur in experimental results depending on cell condition, a previously assayed sample was included as a positive control in each measurement.

First: B1
Second: B2
The activity of the first is higher: 100 % of SEQ 40 inhibition for the first, 60 % of SEQ 40 inhibition for the second.

Going from B3 to B4, the activity rises from 44 % of SEQ 40 inhibition to 110 % of SEQ 40 inhibition.

Compared with B5, B6 is higher in activity: 72 % of SEQ 40 inhibition for the first, 100 % of SEQ 40 inhibition for the second.

B7 and B8 are the same in activity: 100 % of SEQ 40 inhibition for the first, 100 % of SEQ 40 inhibition for the second.

Compared with B9, B10 is higher in activity: 91 % of SEQ 40 inhibition for the first, 100 % of SEQ 40 inhibition for the second.

First: B11
Second: B12
The activity of the first is higher: 100 % of SEQ 40 inhibition for the first, 70 % of SEQ 40 inhibition for the second.

Going from B13 to B14, the activity falls from 84 % of SEQ 40 inhibition to 60 % of SEQ 40 inhibition.

Compared with B15, B16 is lower in activity: 69 % of SEQ 40 inhibition for the first, 51 % of SEQ 40 inhibition for the second.

Compared with B17, B18 is lower in activity: 110 % of SEQ 40 inhibition for the first, 100 % of SEQ 40 inhibition for the second.

First: B19
Second: B20
The activity of the first is lower: 97 % of SEQ 40 inhibition for the first, 100 % of SEQ 40 inhibition for the second.

Going from B21 to B22, the activity rises from 92 % of SEQ 40 inhibition to 100 % of SEQ 40 inhibition.

B23 and B24 are the same in activity: 100 % of SEQ 40 inhibition for the first, 100 % of SEQ 40 inhibition for the second.

In the case of B25, the activity is reported as 53 % of SEQ 40 inhibition.

Target: T1, midkine (full-length)
Assay: cell_activity; 500 nM RNA
Conditions: tags: expressed in yeast
Remark: another data set of the same source
Method: as §1, with “Chem. 276 (19), 15868-15875, 2001). […] 30 μL” for “30 μL”
as §2, with “SEQ ID NO:4 is 77” for “SEQ ID NO:5 is 77”, “having the 2′ position of the” for “having the 2′-position of the”, “pyrimidine nucleotide thereof fluoro-substituted. To” for “pyrimidine nucleotide fluoro-substituted. To”, “inhibition experiment. In the cell” for “inhibition experiment. The RNA concentration in the cell”, “migration inhibition experiment, the RNA concentration was 100” for “migration inhibition experiment was 100”

Going from B26 to B27, the activity falls from 91 % of SEQ 4 inhibition to 70 % of SEQ 4 inhibition.

First: B28
Second: B29
The activity of the first is lower: 81 % of SEQ 4 inhibition for the first, 110 % of SEQ 4 inhibition for the second.

Going from B30 to B31, the activity rises from 61 % of SEQ 4 inhibition to 75 % of SEQ 4 inhibition.

First: B32
Second: B33
The activity of the first is lower: 88 % of SEQ 4 inhibition for the first, 97 % of SEQ 4 inhibition for the second.

B34 and B35 are the same in activity: 100 % of SEQ 4 inhibition for the first, 100 % of SEQ 4 inhibition for the second.

Compared with B36, B37 is lower in activity: 94 % of SEQ 4 inhibition for the first, 57 % of SEQ 4 inhibition for the second.

First: B38
Second: B39
The activity of the first is lower: 68 % of SEQ 4 inhibition for the first, 100 % of SEQ 4 inhibition for the second.

B40 and B41 are the same in activity: 100 % of SEQ 4 inhibition for the first, 100 % of SEQ 4 inhibition for the second.
